B1: RGS5_(2-15), synthetic peptide corresponding to the methionine excised N-terminus of RGS5, residues 2 to 15 [human] / 2-aminoethanethiol dioxygenase (ADO), full-length human, N-terminally His-tagged and biotinylated (pQE80L-Navi-ADO) … (parent complex)
chain 1: CKGLAALPHSCLER
chain 2: MPRDNMASLIQRIARQACLTFRGSGGGRGASDRDAASGPEAPMQPGFPENLSKLKSLLTQLRAEDLNIAPRKATLQPLPPNLPPVTYMHIYETDGFSLGVFLLKSGTSIPLHDHPGMHGMLKVLYGTVRISCMDKLDAGGGQRPRALPPEQQFEPPLQPREREAVRPGVLRSRAEYTEASGPCILTPHRDNLHQIDAVEGPAAFLDILAPPYDPDDGRDCHYYRVLEPVRPKEASSSACDLPREVWLLETPQADDFWCEGEPYPGPKVFP

This experiment covers variants of B1. Briefly: SPR; parent: 1; read off a plot.
Take chain 2 MPRDNMASLIQRIARQACLTFRGSGGGRGASDRDAASGPEAPMQPGFPENLSKLKSLLTQLRAEDLNIAPRKATLQPLPPNLPPVTYMHIYETDGFSLGVALLKSGTSIPLHDHPGMHGMLKVLYGTVRISCMDKLDAGGGQRPRALPPEQQFEPPLQPREREAVRPGVLRSRAEYTEASGPCILTPHRDNLHQIDAVEGPAAFLDILAPPYDPDDGRDCHYYRVLEPVRPKEASSSACDLPREVWLLETPQADDFWCEGEPYPGPKVFP [chain 2 F101A]: the ratio to parent was ~74.

Turning to chain 2 MPRDNMASLIQRIARQACLTFRGSGGGRGASDRDAASGPEAPMQPGFPENLSKLKSLLTQLRAEDLNIAPRKATLQPLPPNLPPVTAMHIYETDGFSLGVFLLKSGTSIPLHDHPGMHGMLKVLYGTVRISCMDKLDAGGGQRPRALPPEQQFEPPLQPREREAVRPGVLRSRAEYTEASGPCILTPHRDNLHQIDAVEGPAAFLDILAPPYDPDDGRDCHYYRVLEPVRPKEASSSACDLPREVWLLETPQADDFWCEGEPYPGPKVFP [chain 2 Y87A], the ratio to parent was ~9.

These data come from publication PMC12098869, “An mRNA-display derived cyclic peptide scaffold reveals the substrate binding interactions of an N-terminal cysteine oxidase” (Nature Communications, 2025).
